Measurements reported in patent EP1398371A1.

Legend:
[1] = target: HCV E2 glycoprotein of genotype 1a (Hepatitis C virus genotype 1a) (UniProt P27958); assay: cell-based or functional assay
human CD81 (human) = human CD81 (human) (UniProt P60033); assay: cell-based or functional assay

Substance	inhibition of infectivity of HCVpp on Huh-7 cells (hCD81-LEL at 4, 8, 16 µg/ml pre-incubated with the particles) [1] [%]	inhibition of infection by HCVpp of genotypes 1a and 1b after pre-incubation of the target cells with antibody (30 µg/ml) (human CD81 (human)) [%]
recombinant GST-fusion polypeptide encompassing the large extra-cellular loop (LEL) of human CD81 (from UniProt P60033 113-201)	38 to 54	–
JS-81 anti-CD81 monoclonal antibody (Pharmingen)	–	> 90
